According to PMC2120623:
Values belong to the molecule of their own block, whether it stands above or below them.

Legend:
Experiment in all cases: two-hybrid
[1] = target: AP47 in pGBT9 (two-hybrid GAL4 DNA binding domain fusion) (UniProt P35585)
[2] = target: AP50 in pGBT9 (two-hybrid GAL4 DNA binding domain fusion) (UniProt P84092)
[3] = target: αγα chimera in pGBT9 (two-hybrid GAL4 DNA binding domain fusion) (not stated | bovine) (UniProt P17427)
Sequence of UniProt P17427 (P17427 whole entry, change not shown, the tested form may be a part): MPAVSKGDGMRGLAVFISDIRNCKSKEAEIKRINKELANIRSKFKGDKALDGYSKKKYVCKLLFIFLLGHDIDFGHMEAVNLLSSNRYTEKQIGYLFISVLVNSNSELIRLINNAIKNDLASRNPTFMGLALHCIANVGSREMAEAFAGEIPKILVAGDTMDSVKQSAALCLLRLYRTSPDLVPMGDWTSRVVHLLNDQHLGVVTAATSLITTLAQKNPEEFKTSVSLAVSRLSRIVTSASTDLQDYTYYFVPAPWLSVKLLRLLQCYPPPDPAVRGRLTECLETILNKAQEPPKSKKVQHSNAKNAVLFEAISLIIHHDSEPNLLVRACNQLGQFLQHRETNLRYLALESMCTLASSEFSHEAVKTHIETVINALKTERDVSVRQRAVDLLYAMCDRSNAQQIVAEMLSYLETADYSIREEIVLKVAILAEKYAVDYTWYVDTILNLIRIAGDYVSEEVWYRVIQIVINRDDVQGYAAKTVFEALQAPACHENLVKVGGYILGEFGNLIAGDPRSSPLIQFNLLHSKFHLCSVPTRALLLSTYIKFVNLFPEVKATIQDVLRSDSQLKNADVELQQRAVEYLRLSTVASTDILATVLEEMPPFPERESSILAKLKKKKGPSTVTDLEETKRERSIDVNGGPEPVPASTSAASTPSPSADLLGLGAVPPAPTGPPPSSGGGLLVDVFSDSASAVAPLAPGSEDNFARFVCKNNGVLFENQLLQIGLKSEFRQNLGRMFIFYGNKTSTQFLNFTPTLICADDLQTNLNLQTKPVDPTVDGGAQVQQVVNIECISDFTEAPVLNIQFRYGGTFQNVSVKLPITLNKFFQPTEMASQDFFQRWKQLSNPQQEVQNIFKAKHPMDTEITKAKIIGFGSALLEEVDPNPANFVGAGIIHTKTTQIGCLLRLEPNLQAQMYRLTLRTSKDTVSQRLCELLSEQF

Sequence of UniProt P35585 (P35585 whole entry, the tested form may be a part): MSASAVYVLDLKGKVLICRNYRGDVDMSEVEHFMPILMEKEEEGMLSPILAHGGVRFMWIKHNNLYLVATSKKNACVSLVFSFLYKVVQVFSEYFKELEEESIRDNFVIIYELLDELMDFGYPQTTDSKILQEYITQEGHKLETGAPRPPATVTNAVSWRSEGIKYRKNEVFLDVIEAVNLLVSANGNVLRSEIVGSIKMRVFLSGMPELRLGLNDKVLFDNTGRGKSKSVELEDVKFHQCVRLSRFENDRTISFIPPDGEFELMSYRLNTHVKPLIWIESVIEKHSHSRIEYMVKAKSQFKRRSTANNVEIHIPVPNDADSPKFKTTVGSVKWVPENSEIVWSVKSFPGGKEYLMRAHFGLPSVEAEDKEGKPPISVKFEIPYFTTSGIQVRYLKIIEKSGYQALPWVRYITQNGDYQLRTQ
Sequence of UniProt P84092 (P84092 whole entry, the tested form may be a part): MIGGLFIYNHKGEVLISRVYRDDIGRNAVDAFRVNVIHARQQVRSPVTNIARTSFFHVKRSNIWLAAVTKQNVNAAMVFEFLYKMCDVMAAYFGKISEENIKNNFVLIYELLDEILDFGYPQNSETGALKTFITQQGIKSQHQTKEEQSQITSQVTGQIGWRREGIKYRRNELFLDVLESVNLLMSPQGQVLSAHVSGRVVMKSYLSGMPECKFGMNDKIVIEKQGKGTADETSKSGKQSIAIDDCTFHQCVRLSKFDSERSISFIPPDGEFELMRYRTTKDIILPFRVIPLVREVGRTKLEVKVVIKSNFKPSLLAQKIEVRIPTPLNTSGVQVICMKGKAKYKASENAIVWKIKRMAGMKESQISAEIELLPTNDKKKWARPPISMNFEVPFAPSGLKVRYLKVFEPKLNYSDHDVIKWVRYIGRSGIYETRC

beta-galactosidase units [1]: 25.4 units
beta-galactosidase units [2]: 102 units
beta-galactosidase units [3]: 38.6 units
Molecule: beta-adaptin in pGAD424 (two-hybrid activator fusion) (from UniProt P62944 1-937) (natural protein)

beta-galactosidase units [3]: 22.3 units
B1: beta'-adaptin in pGAD424 (two-hybrid activator fusion) (natural protein)
chain: MTDSKYFTTTKKGEIFELKAELNSDKKEKKKEAVKKVIASMTVGKDVSALFPDVVNCMQTDNLELKKLVYLYLMNYAKSQPDMAIMAVNTFVKDCEDPNPLIRALAVRTMGCIRVDKITEYLCEPLRKCLKDEDPYVRKTAAVCVAKLHDINAQLVEDQGFLDTLKDLISDSNPMVVANRVAALSEIAESHPSSNLLDLKAQSINKLLTALNECTEWAQIFILDCLGNYMPKDDREAQSICERVTPRLSHANSAVVLSAVKVLMKFMEMLSKDLDYYATLLKKLAPPLVTLLSAEPEPQYVPLRNINLIVQKRPEILKHEMKVFFVKYNDPIYVKLEKLDIMIRLASQANIAQVLAELKEYATEVDVDFVRKAVRAIGRCAIKVEQSAERCVSTLLDLIQTKVNYVVQEAIVVIKDIFRKYPNKYESVIATLCENLDSLDEPEARAAMIWIVGEYAERIDNADELLESFLDGFHDESTQVQLQLLTAIVKLFLKKPTETQELVQQVLSLATQDSDNPDLRDRGYIYWRLLSTDPVAAKEVVLAEKPLISEETDLIEPTLLDELICYIGTLASVYHKPPNAFVEGGRGVVHKSLPPRTASSESTESPEAAPAGAPASDQPDVIPAQGDLLGDLLNLDLGPPVSGPPLAASSVQMGAVDLLGGGLDSLMGDEPEGIGDSNFGAPPASVAAAAPARLGAPVSSGLSDLFDLTSGVGTLSGSYVAPKAVWLPAMKAKGLEISGTFTRQVGSISMDLQLTNKALQVMTDFAIQFNRNSFGLAPAAPLQVHAPLSPNQTVEISLPLNTVGSVMKMEPLNNLQVAVKNNIDVFYFSTLYPLHVLFVEDGKMDRQMFLATWKDIPNENEAQFQIRDCPLNTEAASSKLQSSNIFTVAKRTVEGQDMLYQSLKLTNGIWVLAELRIQPGNPSFTLSLKCRAPEVSQHDIQAYETILKN
